This assay deals with GST-Cx46G143R loop fusion protein (intracellular loop domain of human Cx46 with the cataract mutation G143R) (human). Kind of assay: pull-down; GST, GST-Cx46 loop or GST-Cx46G143R loop on glutathione beads incubated with crude membrane proteins of HeLa cells expressing Cx46, rotating platform, 4°C overnight; eluted proteins blotted with anti-Cx46 and anti-GST.

Experimental findings from PMC3760834 are described below.

As to “human connexin 46 (Cx46), wild type (from UniProt Q9Y6H8 1-435) (natural protein)”, the fold of Cx46 pulled down against the wild-type GST-Cx46 loop was more than 2 fold.
